{"source": "paper doi:10.1101/325035", "target": "sfGFP-Ensconsin (full length) (Drosophila)", "assay": "TIRF microscopy", "data": [{"substance": "K560-mScarlet (truncated Kinesin-1 motor) (domain or fragment)", "values": [{"measurement": "fluorescence intensity of K560-mScarlet on microtubules with 25 nM sfGFP-Ensc", "value": 34200, "unit": "A.U."}]}]}
